In patent publication US6500417 (DSM N V, dated 2002):

How the values were obtained:
IL-3 receptor [1] = molecular target: T1, IL-3 receptor (human, UniProt P26951 19-378; P32927 17-897); test: cell-based or functional assay
IL-3 receptor [2] = molecular target: T1, IL-3 receptor; test: competition with radiolabeled IL-3 for binding to cells; NC: No competition was observed for the particular mutein preparation
Procedure: (§1) An ILK3 receptor binding assay was performed with purified recombinant hIL-3 (see EPA 0390252) was radiolabeled with the Bolton-Hunter reagent (as described by Budel et al., Blood 74 (1989) 565–571). The specific activity was estimated at 80,000 cpm/ng of IL-3. As target, either donor leukocytes, patient AML cells, or MV4-11 (ATCC: CRL-9591) cells were used. Cells were washed in Hanks Balanced Salt solution and suspended in Alpha-MEM plus 1% BSA. Usually, 3–10×10⁶ cells were incubated with 200–300 pM of radiolabeled IL-3 and various concentrations of unlabeled mutant protein in a total volume of 200 µl for 1 hr at 37° C. Cell-bound labeled IL-3 was centrifuged for 10 min at 1000×g at 4° C. through a 0.5 ml cushion of bovine calf serum in an Eppendorf tube (Budel et al., 1989). The tubes were frozen in liquid nitrogen and the tips cut off for counting in a Packard gamma counter. Competition binding was determined relative to the reference preparation. […] Radiolabeled IL-3 binding to patient AML blasts is competed with unlabeled IL-3 protein (reference preparation). Due to the low number of receptors (less than 200) on the target cells, data for competition mostly varied by one order of magnitude.

IL-3 receptor [3] = molecular target: T1, IL-3 receptor; test: competition with radiolabeled hIL-3 for binding to cells, relative to reference IL-3
Procedure: as §1

T1 sequence (P26951 19-378, chain 1 of 2): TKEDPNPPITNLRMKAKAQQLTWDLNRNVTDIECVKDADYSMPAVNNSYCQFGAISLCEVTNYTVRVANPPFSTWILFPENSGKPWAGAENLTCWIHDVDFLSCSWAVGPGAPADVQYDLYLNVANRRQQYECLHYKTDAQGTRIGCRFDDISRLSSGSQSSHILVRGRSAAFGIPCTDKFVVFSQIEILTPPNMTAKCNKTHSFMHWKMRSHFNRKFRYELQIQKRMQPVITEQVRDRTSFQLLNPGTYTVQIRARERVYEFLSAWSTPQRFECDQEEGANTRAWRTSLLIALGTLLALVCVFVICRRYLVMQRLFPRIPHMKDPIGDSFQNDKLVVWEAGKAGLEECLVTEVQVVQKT
T1 sequence (P32927 17-897, chain 2 of 2): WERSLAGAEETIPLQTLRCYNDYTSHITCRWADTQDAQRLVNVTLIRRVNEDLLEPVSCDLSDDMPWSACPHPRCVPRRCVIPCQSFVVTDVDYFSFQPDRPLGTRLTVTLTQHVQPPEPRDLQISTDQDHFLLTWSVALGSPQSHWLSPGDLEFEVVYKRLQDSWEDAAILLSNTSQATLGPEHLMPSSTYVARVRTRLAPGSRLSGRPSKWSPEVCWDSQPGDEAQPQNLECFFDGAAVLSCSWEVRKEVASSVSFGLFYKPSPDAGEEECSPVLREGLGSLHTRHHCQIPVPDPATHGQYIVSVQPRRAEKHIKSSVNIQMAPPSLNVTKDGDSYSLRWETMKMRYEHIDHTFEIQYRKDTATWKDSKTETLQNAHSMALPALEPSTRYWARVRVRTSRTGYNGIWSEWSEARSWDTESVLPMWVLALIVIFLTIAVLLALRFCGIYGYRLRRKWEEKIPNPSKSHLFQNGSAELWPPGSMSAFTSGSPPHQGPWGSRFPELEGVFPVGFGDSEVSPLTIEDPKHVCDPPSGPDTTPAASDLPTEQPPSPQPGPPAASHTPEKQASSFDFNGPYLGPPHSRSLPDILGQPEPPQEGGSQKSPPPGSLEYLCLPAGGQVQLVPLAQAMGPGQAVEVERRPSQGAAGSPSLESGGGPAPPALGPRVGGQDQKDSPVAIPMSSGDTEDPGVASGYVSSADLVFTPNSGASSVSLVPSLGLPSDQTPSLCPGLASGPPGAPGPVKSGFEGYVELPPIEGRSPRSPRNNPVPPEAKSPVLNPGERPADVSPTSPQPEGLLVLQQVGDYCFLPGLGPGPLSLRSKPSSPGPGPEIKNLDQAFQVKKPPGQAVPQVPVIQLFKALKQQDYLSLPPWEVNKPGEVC

Binder | REL. SPEC. BIOLOGICAL ACTIVITY (DNA synthesis of AML193 cells) (IL-3 receptor [1]) | binding result (IL-3 receptor [2]) | relative antagonistic potential (relative receptor binding activity / relative biological activity) (IL-3 receptor [3])
reference IL-3 preparation (B. licheniformis, full-length IL-3 cDNA in pGB/IL-322) (ligand, radiolabeled with the Bolton-Hunter reagent when used as tracer) APMTQTTPLKTSWVNCSNMIDEIITHLKQPPLPLLDFNNLNGEDQDILMENNLRRPNLEAFNRAVKSLQNASAIESILKNLLPCLPLATAAPTRHPIHIKDGDWNEFRRKLTFYLKTLENAQAQQTTLSLAIF | 1 relative to reference IL-3 | – | –
hIL-3 substitution mutant 1481 (Glu43Asp44→Lys43Arg44) (ligand, also called 43ED→KR; not shown: heterologous N-terminal leader of the E. coli fusion (pGB/IL-336: 12 aa; pGB/IL-339: 15 aa)) APMTQTTPLKTSWVNCSNMIDEIITHLKQPPLPLLDFNNLNGKRQDILMENNLRRPNLEAFNRAVKSLQNASAIESILKNLLPCLPLATAAPTRHPIHIKDGDWNEFRRKLTFYLKTLENAQAQQTTLSLAIF | < 0.00015 relative to reference IL-3 | no binding | –
hIL-3 substitution mutant 905 (Cys84→Ala84) (ligand, also called 84C → A; not shown: heterologous N-terminal leader of the E. coli fusion (pGB/IL-336: 12 aa; pGB/IL-339: 15 aa)) APMTQTTPLKTSWVNCSNMIDEIITHLKQPPLPLLDFNNLNGEDQDILMENNLRRPNLEAFNRAVKSLQNASAIESILKNLLPALPLATAAPTRHPIHIKDGDWNEFRRKLTFYLKTLENAQAQQTTLSLAIF | 0.00019 relative to reference IL-3 | – | 11
hIL-3 substitution mutant 1483 (Glu50→Lys50) (ligand, also called 50E → K; not shown: heterologous N-terminal leader of the E. coli fusion (pGB/IL-336: 12 aa; pGB/IL-339: 15 aa)) APMTQTTPLKTSWVNCSNMIDEIITHLKQPPLPLLDFNNLNGEDQDILMKNNLRRPNLEAFNRAVKSLQNASAIESILKNLLPCLPLATAAPTRHPIHIKDGDWNEFRRKLTFYLKTLENAQAQQTTLSLAIF | 0.0027 relative to reference IL-3 | – | 37
hIL-3 double cysteine mutant 9045 (Cys16Cys84→Ala16Ala84) (ligand, also called 16/84C → A; not shown: heterologous N-terminal leader of the E. coli fusion (pGB/IL-336: 12 aa; pGB/IL-339: 15 aa)) APMTQTTPLKTSWVNASNMIDEIITHLKQPPLPLLDFNNLNGEDQDILMENNLRRPNLEAFNRAVKSLQNASAIESILKNLLPALPLATAAPTRHPIHIKDGDWNEFRRKLTFYLKTLENAQAQQTTLSLAIF | 0.00031 relative to reference IL-3 | – | 88
hIL-3 substitution mutant 904 (Cys16→Ala16) (ligand, also called 16C → A; not shown: heterologous N-terminal leader of the E. coli fusion (pGB/IL-336: 12 aa; pGB/IL-339: 15 aa)) APMTQTTPLKTSWVNASNMIDEIITHLKQPPLPLLDFNNLNGEDQDILMENNLRRPNLEAFNRAVKSLQNASAIESILKNLLPCLPLATAAPTRHPIHIKDGDWNEFRRKLTFYLKTLENAQAQQTTLSLAIF | 0.00024 relative to reference IL-3 | – | 100
hIL-3 deletion mutant 822 (deletion 107-119) (ligand, not shown: heterologous N-terminal leader of the E. coli fusion (pGB/IL-336: 12 aa; pGB/IL-339: 15 aa)) APMTQTTPLKTSWVNCSNMIDEIITHLKQPPLPLLDFNNLNGEDQDILMENNLRRPNLEAFNRAVKSLQNASAIESILKNLLPCLPLATAAPTRHPIHIKDGDWNENAQAQQTTLSLAIF | 0.00021 relative to reference IL-3 | – | 1.9
hIL-3 deletion mutant 811 (deletion 31-49) (ligand, expressed in Bacillus, lacks a leader) APMTQTTPLKTSWVNCSNMIDEIITHLKQPENNLRRPNLEAFNRAVKSLQNASAIESILKNLLPCLPLATAAPTRHPIHIKDGDWNEFRRKLTFYLKTLENAQAQQTTLSLAIF | 0.0048 relative to reference IL-3 | – | 1.6
hIL-3 combination deletion mutant Z (deletions 1-14/116-133) (ligand, expressed in Bacillus, lacks a leader) NCSNMIDEIITHLKQPPLPLLDFNNLNGEDQDILMENNLRRPNLEAFNRAVKSLQNASAIESILKNLLPCLPLATAAPTRHPIHIKDGDWNEFRRKLTFYL | 0.11 relative to reference IL-3 | – | 1.6
hIL-3 combination deletion mutant X (deletions 1-14/120-133) (ligand, expressed in Bacillus, lacks a leader) NCSNMIDEIITHLKQPPLPLLDFNNLNGEDQDILMENNLRRPNLEAFNRAVKSLQNASAIESILKNLLPCLPLATAAPTRHPIHIKDGDWNEFRRKLTFYLKTLE | 0.23 relative to reference IL-3 | – | 8.9
hIL-3 deletion mutant 933 (deletion 29-37) (ligand, expressed in Bacillus, lacks a leader) APMTQTTPLKTSWVNCSNMIDEIITHLKNNLNGEDQDILMENNLRRPNLEAFNRAVKSLQNASAIESILKNLLPCLPLATAAPTRHPIHIKDGDWNEFRRKLTFYLKTLENAQAQQTTLSLAIF | 0.0057 relative to reference IL-3 | – | 1.1
hIL-3 deletion mutant 810 (deletion 20-30) (ligand, also called 4810; not shown: heterologous N-terminal leader of the E. coli fusion (pGB/IL-336: 12 aa; pGB/IL-339: 15 aa)) APMTQTTPLKTSWVNCSNMPLPLLDFNNLNGEDQDILMENNLRRPNLEAFNRAVKSLQNASAIESILKNLLPCLPLATAAPTRHPIHIKDGDWNEFRRKLTFYLKTLENAQAQQTTLSLAIF | 0.0021 relative to reference IL-3 | – | 2.4
hIL-3 deletion mutant 812 (deletion 54-61) (ligand, not shown: heterologous N-terminal leader of the E. coli fusion (pGB/IL-336: 12 aa; pGB/IL-339: 15 aa)) APMTQTTPLKTSWVNCSNMIDEIITHLKQPPLPLLDFNNLNGEDQDILMENNLNRAVKSLQNASAIESILKNLLPCLPLATAAPTRHPIHIKDGDWNEFRRKLTFYLKTLENAQAQQTTLSLAIF | 5.3e-05 relative to reference IL-3 | – | 1.2

Further lines, results first:

REL. SPEC. BIOLOGICAL ACTIVITY (DNA synthesis of AML193 cells) (IL-3 receptor [1]) | binding result (IL-3 receptor [2]) | relative antagonistic potential (relative receptor binding activity / relative biological activity) (IL-3 receptor [3]) | Binder
8e-05 relative to reference IL-3 | – | 3.5 | hIL-3 substitution mutant 1484 (Arg54Arg55→Glu54Asp55) (ligand, also called 54RR → ED; not shown: heterologous N-terminal leader of the E. coli fusion (pGB/IL-336: 12 aa; pGB/IL-339: 15 aa)) APMTQTTPLKTSWVNCSNMIDEIITHLKQPPLPLLDFNNLNGEDQDILMENNLEDPNLEAFNRAVKSLQNASAIESILKNLLPCLPLATAAPTRHPIHIKDGDWNEFRRKLTFYLKTLENAQAQQTTLSLAIF
3.1e-05 relative to reference IL-3 | – | 2 | hIL-3 substitution mutant 1492 (Arg108Arg109Lys110→Glu108Asp109Glu110) (ligand, also called 108RRK → EDE; not shown: heterologous N-terminal leader of the E. coli fusion (pGB/IL-336: 12 aa; pGB/IL-339: 15 aa)) APMTQTTPLKTSWVNCSNMIDEIITHLKQPPLPLLDFNNLNGEDQDILMENNLRRPNLEAFNRAVKSLQNASAIESILKNLLPCLPLATAAPTRHPIHIKDGDWNEFEDELTFYLKTLENAQAQQTTLSLAIF
0.0019 relative to reference IL-3 | – | 65 | hIL-3 substitution mutant 1488 (Lys79→Glu79) (ligand, also called 79K → E; not shown: heterologous N-terminal leader of the E. coli fusion (pGB/IL-336: 12 aa; pGB/IL-339: 15 aa)) APMTQTTPLKTSWVNCSNMIDEIITHLKQPPLPLLDFNNLNGEDQDILMENNLRRPNLEAFNRAVKSLQNASAIESILENLLPCLPLATAAPTRHPIHIKDGDWNEFRRKLTFYLKTLENAQAQQTTLSLAIF
9.8e-05 relative to reference IL-3 | – | 14 | hIL-3 substitution mutant 1486 (Arg63Ala64→Pro63Gly64) (ligand, also called 63RA → PG; not shown: heterologous N-terminal leader of the E. coli fusion (pGB/IL-336: 12 aa; pGB/IL-339: 15 aa)) APMTQTTPLKTSWVNCSNMIDEIITHLKQPPLPLLDFNNLNGEDQDILMENNLRRPNLEAFNPGVKSLQNASAIESILKNLLPCLPLATAAPTRHPIHIKDGDWNEFRRKLTFYLKTLENAQAQQTTLSLAIF
< 1.2e-05 relative to reference IL-3 | no binding | – | hIL-3 substitution mutant 1493 (Phe113Tyr114→Ala113Thr114) (ligand, also called 113FY → AT; not shown: heterologous N-terminal leader of the E. coli fusion (pGB/IL-336: 12 aa; pGB/IL-339: 15 aa)) APMTQTTPLKTSWVNCSNMIDEIITHLKQPPLPLLDFNNLNGEDQDILMENNLRRPNLEAFNRAVKSLQNASAIESILKNLLPCLPLATAAPTRHPIHIKDGDWNEFRRKLTATLKTLENAQAQQTTLSLAIF
0.79 relative to reference IL-3 | – | 1.1 | pGB/IL-336 IL-3 fusion protein (ligand) MTMITNSRGSVDAPMTQTTPLKTSWVNCSNMIDEIITHLKQPPLPLLDFNNLNGEDQDILMENNLRRPNLEAFNRAVKSLQNASAIESILKNLLPCLPLATAAPTRHPIHIKDGDWNEFRRKLTFYLKTLENAQAQQTTLSLAIF
